Data: patent US20020177126A1 (published 2002)
“And” between values parts separate entries of the source, which are not always exact repeats. Equal values may be shown once.

Legend:
[1] = molecular target: T1, F protein of RSV A/Long MARM B9 (respiratory syncytial virus, strain …, UniProt P12568 26-574); experiment: IFA on MARM-infected HEp-2 cells
T1 construct: whole, on cells

[2] = molecular target: T2, F protein of MARM #13 (selected with A4B4 from MARM B9) (respiratory syncytial virus, strain …, UniProt P12568 26-574); experiment: IFA on MARM-infected HEp-2 cells
T2 construct: whole, on cells

[3] = molecular target: T3, F protein of wild type RSV A/Long (respiratory syncytial virus, strain …, UniProt P12568 26-574); experiment: cell-based or functional assay
[4] = molecular target: F protein (RSV F glycoprotein immobilised on the BIAcore sensor chip) (respiratory syncytial virus (RSV), UniProt P03420 26-524); experiment: BIAcore, immobilised F protein
[5] = molecular target: Bac-F (UniProt P03420 26-524); experiment: BIAcore, Mab vs Bac-F, 1:1
[6] = molecular target: T3, F protein of wild type RSV A/Long; experiment: cell-based or functional assay; remark: listed apart in the source
[7] = molecular target: T4, F protein of RSV A/Long MARM #10 (selected with A4B4) (respiratory syncytial virus, strain …, UniProt P12568 26-574); experiment: IFA on MARM-infected HEp-2 cells
T4 construct: whole, on cells

[8] = molecular target: T5, F protein of RSV A/Long MARM #11 (selected with A4B4) (respiratory syncytial virus, strain …, UniProt P12568 26-574); experiment: IFA on MARM-infected HEp-2 cells
T5 construct: whole, on cells

[9] = molecular target: T6, F protein of RSV A/Long MARM #9 (selected with A4B4) (respiratory syncytial virus, strain …, UniProt P12568 26-574); experiment: IFA on MARM-infected HEp-2 cells
T6 construct: whole, on cells

[10] = molecular target: T7, F protein of RSV A/Long MARM #6 (selected with A4B4) (respiratory syncytial virus, strain …, UniProt P12568 26-574); experiment: IFA on MARM-infected HEp-2 cells
T7 construct: whole, on cells

[11] = molecular target: T8, F protein of RSV A/Long MARM B6 (respiratory syncytial virus, strain …, UniProt P12568 26-574); experiment: IFA on MARM-infected HEp-2 cells
T8 construct: whole, on cells

[12] = molecular target: T9, F protein of RSV A/Long MARM B7 (respiratory syncytial virus, strain …, UniProt P12568 26-574); experiment: IFA on MARM-infected HEp-2 cells
T9 construct: whole, on cells

[13] = molecular target: T10, F protein of RSV A/Long MARM B8 (respiratory syncytial virus, strain …, UniProt P12568 26-574); experiment: IFA on MARM-infected HEp-2 cells
T10 construct: whole, on cells

[14] = molecular target: T11, F protein of RSV A/Long MARM B2 (respiratory syncytial virus, strain …, UniProt P12568 26-574); experiment: IFA on MARM-infected HEp-2 cells
T11 construct: whole, on cells

[15] = molecular target: T12, F protein of RSV A/Long MARM B13 (respiratory syncytial virus, strain …, UniProt P12568 26-574); experiment: IFA on MARM-infected HEp-2 cells
T12 construct: whole, on cells

[16] = molecular target: T13, F protein of RSV A/Long MARM B15 (respiratory syncytial virus, strain …, UniProt P12568 26-574); experiment: IFA on MARM-infected HEp-2 cells
T13 construct: whole, on cells

[17] = molecular target: T14, F protein of RSV A/Long MARM B14 (respiratory syncytial virus, strain …, UniProt P12568 26-574); experiment: IFA on MARM-infected HEp-2 cells
T14 construct: whole, on cells

[18] = molecular target: T15, F protein of RSV A/Long MARM B10 (respiratory syncytial virus, strain …, UniProt P12568 26-574); experiment: IFA on MARM-infected HEp-2 cells
T15 construct: whole, on cells

[19] = molecular target: T16, F protein of RSV A/Long MARM B3 (respiratory syncytial virus, strain …, UniProt P12568 26-574); experiment: IFA on MARM-infected HEp-2 cells
T16 construct: whole, on cells

[20] = molecular target: T17, F protein of RSV A/Long MARM B1 (respiratory syncytial virus, strain …, UniProt P12568 26-574); experiment: IFA on MARM-infected HEp-2 cells
T17 construct: whole, on cells

[21] = molecular target: T18, F protein of RSV A/Long MARM B4 (respiratory syncytial virus, strain …, UniProt P12568 26-574); experiment: IFA on MARM-infected HEp-2 cells
T18 construct: whole, on cells

B1: SYNAGIS® (antibody, V domains shown)
VH: QVTLRESGPALVKPTQTLTLTCTFSGFSLSTSGMSVGWIRQPPGKALEWLADIWWDDKKDYNPSLKSRLTISKDTSKNQVVLKVTNMDPADTATYYCARSMITNWYFDVWGAGTTVTVSS
VL: DIQMTQSPSTLSASVGDRVTITCKCQLSVGYMHWYQQKPGKAPKLLIYDTSKLASGVPSRFSGSGSGTEFTLTISSLQPDDFATYYCFQGSGYPFTFGGGTKLEIK
notes: also called SYNAGIS ®/SYNAGIS ® (HC/LC)
binding result [1]: no binding (tested: 250 ng/ml) | binding result [2]: no binding (tested: 250 ng/ml) | EC50, RSV (Long) microneutralization [3]: 3.57 nM | koff [4]: 0.000764 s⁻¹ and 0.000738 s⁻¹ and 0.000702 s⁻¹ | kon [4]: 204000 M⁻¹ s⁻¹ and 189000 M⁻¹ s⁻¹ and 218000 M⁻¹ s⁻¹ | Kd [5]: 3.9 nM | koff [5]: 0.000515 s⁻¹ | kon [5]: 132000 M⁻¹ s⁻¹ | number in parentheses after KD (fold vs SYNAGIS) [5]: 1 fold | Mean IC50 (Control), RSV microneutralization [6]: 0.535 µg/mL | Mean IC50 (Curve), RSV microneutralization [6]: 0.453 µg/mL | binding result [7]: no binding (tested: 250 ng/ml) | binding result [8]: no binding (tested: 250 ng/ml) | binding result [9]: no binding (tested: 250 ng/ml) | binding result [10]: no binding (tested: 250 ng/ml) | binding result [11]: no binding (tested: 250 ng/ml) | binding result [12]: no binding (tested: 250 ng/ml) | binding result [13]: no binding (tested: 250 ng/ml) | binding result [14]: no binding (tested: 250 ng/ml) | binding result [15]: no binding (tested: 250 ng/ml) | binding result [16]: no binding (tested: 250 ng/ml) | binding result [17]: no binding (tested: 250 ng/ml) | binding result [18]: no binding (tested: 250 ng/ml) | binding result [19]: no binding (tested: 250 ng/ml) | binding result [20]: no binding (tested: 250 ng/ml) | binding result [21]: no binding (tested: 250 ng/ml)
